Where no end group is shown, it is not given here. The star is where a group is joined. 6FAM = O=C1OC2(c3ccc(O)cc3Oc3cc(O)ccc32)c2cc(C(=O)*)ccc21

The target of assay [1] is T1, TPR domain of T. cruzi PEX5 (347–668) (T. cruzi, UniProt Q4DPQ9 347-668).
T1 construct: PEX5, Trypanosoma cruzi, C-terminal tetratricopeptide repeat (TPR) domain, residues 347-668; codon-optimised synthetic gene in the petHSU vector; The His-SUMO tag was cleaved on the column with dtUD1 protease; also called TcPEX5; TcPEX5 (TPR domain); source: E. coli BL21 (DE3), purified (HiTrap IMAC, on-column tag cleavage, SEC S75); not shown: His6, N-terminal, cleaved
T1 sequence (looked up): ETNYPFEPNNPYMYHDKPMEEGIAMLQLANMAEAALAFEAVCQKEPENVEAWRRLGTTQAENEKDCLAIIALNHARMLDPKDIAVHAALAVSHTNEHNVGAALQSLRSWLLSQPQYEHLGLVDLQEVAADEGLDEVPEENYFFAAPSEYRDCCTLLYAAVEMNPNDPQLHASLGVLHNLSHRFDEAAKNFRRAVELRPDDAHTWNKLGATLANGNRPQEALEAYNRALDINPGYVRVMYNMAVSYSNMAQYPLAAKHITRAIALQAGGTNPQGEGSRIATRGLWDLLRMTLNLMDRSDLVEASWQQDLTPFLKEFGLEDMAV
The assay can be described thus: fluorescence polarisation; saturation binding: 10 nM 6-FAM-PTS1 titrated with TcPEX5 (0.1–250 nM); 10 mM Hepes pH 7.5, 100 mM NaCl, 5% DMSO; one-site fit. Conditions: both partners purified.

In assay [2] the target is T1, TPR domain of T. cruzi PEX5 (347–668). Nature of the assay: fluorescence polarisation; competitive: increasing unlabeled PTS1 added to 30 nM TcPEX5 (f0 = 0.8) and 10 nM 6-FAM-PTS1; Ki by curve fitting. The following applies: both partners purified. On the technique in general: In fluorescence polarisation assays a small probe gives low polarisation when free and higher when bound to something large.

B1: 6-FAM-labelled PTS1 (6-FAM-YQSKL) (peptide)
peptide: 6FAM-YQSKL
notes: pentapeptide representing peroxisomal targeting signal 1 (PTS1); also called 6-FAM-PTS1; FAM-PTS1
On to B1, for which the Kd (in general, the free concentration of one partner at which half of the binding sites on the other are occupied at equilibrium, for simple one-to-one binding) in assay [1] came to 21 nM.

B2: unlabeled PTS1 peptide (peptide)
peptide: YQSKL
notes: pentapeptide representing PTS1, without the label; also called PTS1 alone; unlabeled PTS peptide
For B2, the affinity in assay [2], expressed as Ki, was 126 nM.

Values taken from paper PMC9424529, “Small molecule mediated inhibition of protein cargo recognition by peroxisomal transport receptor PEX5 is toxic to Trypanosoma” (Scientific Reports, 2022).
